First the molecules themselves.
B1: CXCR4膜蛋白 on Hela细胞 (receptor, UniProt P61073 1-352, looked up)
chain: MEGISIYTSDNYTEEMGSGDYDSMKEPCFREENANFNKIFLPTIYSIIFLTGIVGNGLVILVMGYQKKLRSMTDKYRLHLSVADLLFVITLPFWAVDAVANWYFGNFLCKAVHVIYTVNLYSSVLILAFISLDRYLAIVHATNSQRPRKLLAEKVVYVGVWIPALLLTIPDFIFANVSEADDRYICDRFYPNDLWVVVFQFQHIMVGLILPGIVILSCYCIIISKLSHSKGHQKRKALKTTVILILAFFACWLPYYIGISIDSFILLEIIKQGCEFENTVHKWISITEALAFFHCCLNPILYAFLGAKFKTSAQHALTSVSRGSSLKILSKGKRGGHSSVSTESESSSFHSS
notes: whole, on cells; also called Hela细胞过表达CXCR4膜蛋白; Hela细胞膜蛋白CXCR4

In assay [1] the target is T1, 生物素标记SDF-1a配体(SKU# RBP48061, Reprokine) (UniProt P48061-2 22-89, biotin-labelled (site not stated)).
T1 construct: Bought biotinylated ligand; also called SDF-1α; CXCL12
Briefly: FACS on Hela cells, 0.1uM biotin-SDF-1a, SA-FITC.

The assay “CXCR4膜蛋白 on Hela细胞” deals with B1. Nature of the assay: FACS on Hela cells, recombinant antibody.

B1: the binding result in assay [1] is “binds”.

B2: 1B5B10 (antibody, mouse IgG2b, kappa, V domains shown)
VH: DVQLQESGPGLVKPSQSLSLTCTVTGYSITSDYAWNWIRQFPGNKLEWMGYIDNSGSTNYNPSLRSRISITRDTSKNQFFLQLNSVTTEDTATYYCALNDYHYVMDYWGQGTSVTVSS
VL: DIQMTQSPASLSASVGETVTITCRPSENIYSYLAWYQQKQGKSPQLLVYSAKTLAEGVPLRFSGSYSGTHFSLRINSLQPEDFGSYYCQHHYGSPLTFGSGTKLELKR
notes: also called 1B5B10重组抗体; 鼠单抗1B5B10
For the molecule B2, the binding result with CXCR4膜蛋白 on Hela细胞 is given as “binds”.

The record behind these values is patent CN117003876A (KAIKA BIO TECH SHANGHAI CO LTD, dated 2023).
